# Values joined by “and” are separate entries in the source; they are usually repeats but may differ in a detail not shown here. Identical values can stand only once. Like-named read-outs stand apart in the source and are kept apart here. Where no end group is shown, it is not given here. The star is where a group is joined. Biotin = O=C1N[C@H]2[C@H](CS[C@H]2CCCCC(=O)*)N1
# How the values were obtained:
# SEC = target: the molecule itself; experiment: SEC
# [1] = target: PDZ1+2 (A) module of hDlg (human, UniProt Q12959 205-411); experiment: SPR
# [2] = target: T1, GST-PDZ1+2+3 fusion protein of hDlg (human, UniProt Q12959 201-584); experiment: SPR
# [3] = target: T1, GST-PDZ1+2+3 fusion protein of hDlg; experiment: SPR; remark: listed apart in the source
# Chain of PDZ1+2 (A) module of hDlg (Q12959 205-411): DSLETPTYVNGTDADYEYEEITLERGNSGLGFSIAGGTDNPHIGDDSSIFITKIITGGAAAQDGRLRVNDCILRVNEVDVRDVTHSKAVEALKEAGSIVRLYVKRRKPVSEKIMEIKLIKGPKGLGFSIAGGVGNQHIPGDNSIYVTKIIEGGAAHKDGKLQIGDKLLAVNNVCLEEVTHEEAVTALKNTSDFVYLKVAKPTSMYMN
# T1 sequence (Q12959 201-584): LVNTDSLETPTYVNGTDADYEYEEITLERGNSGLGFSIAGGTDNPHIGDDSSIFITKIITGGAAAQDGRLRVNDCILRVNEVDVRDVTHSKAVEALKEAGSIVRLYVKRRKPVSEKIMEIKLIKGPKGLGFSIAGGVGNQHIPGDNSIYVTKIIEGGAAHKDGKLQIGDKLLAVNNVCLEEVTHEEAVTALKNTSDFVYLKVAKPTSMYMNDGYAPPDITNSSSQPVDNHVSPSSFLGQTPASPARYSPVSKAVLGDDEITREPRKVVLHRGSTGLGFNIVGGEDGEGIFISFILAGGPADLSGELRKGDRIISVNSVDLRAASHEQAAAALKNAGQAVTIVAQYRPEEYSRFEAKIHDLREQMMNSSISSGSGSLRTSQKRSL
Binder,stoichiometry N (SEC),Kd [1] [nM],koff [1],kon [1] [M⁻¹ s⁻¹],Kd [2] [nM],koff [2] [s⁻¹],kon [2] [M⁻¹ s⁻¹],Kd [3] [nM],koff [3] [s⁻¹],kon [3] [M⁻¹ s⁻¹]
"PDZ3 (A) domain of hDlg (domain or fragment, human, UniProt Q12959 457-558, looked up) DDEITREPRKVVLHRGSTGLGFNIVGGEDGEGIFISFILAGGPADLSGELRKGDRIISVNSVDLRAASHEQAAAALKNAGQAVTIVAQYRPEEYSRFEAKIH",2,–,–,–,–,–,–,–,–,–
Biotin-SGSGDKNNCSNAKAVETDV [biotinylated synthetic peptide of the COOH terminus of the Kv1.4 potassium channel],–,33 ± 5,0.0149 s⁻¹ and 0.0135 s⁻¹,413000,11,0.002,180000,160,0.024,150000

# Source: paper PMC2121072 (The Journal of Cell Biology, 1996)
